Results on 1 molecule are retold here after patent KR20200059381A.

The target in experiment [1] is 구제역 바이러스 혈청형 O 배양액(cal1~cal4) (Foot-and-mouth disease virus serotype O). Put plainly: sandwich ELISA, cal1, 1E58 coat 4 ug/ml, 1E58-HRP 0.6 ug/ml, 450 nm.
Experiment [2] has the same target. As to the kind of experiment: sandwich ELISA, cal3, 1E58 coat 2 ug/ml, 1E58-HRP 0.8 ug/ml, 450 nm. Background: In an ELISA, binding on a coated surface is turned into a signal by an enzyme label.
Experiment [3] shares this target. Put plainly: sandwich ELISA, cal2, 1E58 coat 8 ug/ml, 1E58-HRP 0.4 ug/ml, 450 nm.

B1: 단클론항체 1E58 (antibody, V domains shown)
VH: EFQLQQSRPELAKPGASVKISCKTSGHTFTTYTMHWVKQSHVKSLEWIGCFNPNNGGATYNQKFKGKATLTMDKSSNTAYVEVRSLTSDDSAVYYCAYGNYVNFDYWGQGTTLTVSS
VL: DIVLTQSPASLAVSLGQRATISYRASKSVSTSGYSYMHWNQQKPGQPPRLLIYLVSNLESGVPARFSGSGSGTDFTLNIHPVEEEDAATYYCQHIRELTRSEGGPSWKN
B1: the O.D in experiment [1] is 4 O.D; in experiment [2], 2.08 O.D; in experiment [3] it was 1.85 O.D.
